Data on 1 substance can be found in patent publication US20240158489A1.

What is called Kd is the equilibrium constant for the complex coming apart.

Common to all, as to conditions: bispecific antibody
Test [1] has as its target huANG2 (UniProt O15123). The test is described as follows: -; FIG. 2B.
For another test, the target named is huVEGF (UniProt P15692). The test is described as follows: -; FIG. 2B.
The target of test [2] is huANG2 (UniProt O15123). The test is described as follows: -; FIG. 2A.
Chain of huANG2 (O15123 19-496): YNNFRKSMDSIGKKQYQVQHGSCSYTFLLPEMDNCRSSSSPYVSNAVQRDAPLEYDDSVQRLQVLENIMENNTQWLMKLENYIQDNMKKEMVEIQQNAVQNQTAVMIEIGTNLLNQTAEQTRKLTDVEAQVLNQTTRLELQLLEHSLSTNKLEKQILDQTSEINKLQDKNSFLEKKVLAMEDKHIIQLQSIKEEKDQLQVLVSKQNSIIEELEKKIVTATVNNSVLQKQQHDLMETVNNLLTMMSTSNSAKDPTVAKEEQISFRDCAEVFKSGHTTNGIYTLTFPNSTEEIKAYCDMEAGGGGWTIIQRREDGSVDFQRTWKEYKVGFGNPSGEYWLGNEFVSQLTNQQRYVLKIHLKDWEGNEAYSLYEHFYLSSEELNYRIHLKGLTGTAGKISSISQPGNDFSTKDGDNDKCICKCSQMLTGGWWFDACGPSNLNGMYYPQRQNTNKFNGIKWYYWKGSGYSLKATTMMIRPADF

Chain of huVEGF (P15692 other isoform, or with tags, fused parts or gaps): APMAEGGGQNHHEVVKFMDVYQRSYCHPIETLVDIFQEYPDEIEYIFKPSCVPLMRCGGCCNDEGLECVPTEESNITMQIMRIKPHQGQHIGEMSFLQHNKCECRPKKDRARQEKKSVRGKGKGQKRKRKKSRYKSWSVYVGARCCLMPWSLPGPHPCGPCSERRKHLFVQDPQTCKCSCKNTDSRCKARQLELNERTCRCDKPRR

As to “anti-ANG-2×VEGF bispecific antibody ABP201”, the Kd with huANG2 [1] came out at 32.1 nM; with huVEGF, 1.37 nM; with huANG2 [2], 32.1 nM.
